The source of these data is patent US20250222128A1 (Zymeworks, published 2025).

The labels stand for the following.
B1: v17427 (telisotuzumab paratope, HetFc, unmodified hinge, full-size IgG1 antibody) (antibody)
heavy 1: QVQLVQSGAEVKKPGASVKVSCKASGYIFTAYTMHWVRQAPGQGLEWMGWIKPNNGLANYAQKFQGRVTMTRDTSISTAYMELSRLRSDDTAVYYCARSEITTEFDYWGQGTLVTVSSASTKGPSVFPLAPSSKSTSGGTAALGCLVKDYFPEPVTVSWNSGALTSGVHTFPAVLQSSGLYSLSSVVTVPSSSLGTQTYICNVNHKPSNTKVDKKVEPKSCDKTHTCPPCPAPELLGGPSVFLFPPKPKDTLMISRTPEVTCVVVDVSHEDPEVKFNWYVDGVEVHNAKTKPREEQYNSTYRVVSVLTVLHQDWLNGKEYKCKVSNKALPAPIEKTISKAKGQPREPQVYVYPPSRDELTKNQVSLTCLVKGFYPSDIAVEWESNGQPENNYKTTPPVLDSDGSFALVSKLTVDKSRWQQGNVFSCSVMHEALHNHYTQKSLSLSPG
heavy 2: not shown
light: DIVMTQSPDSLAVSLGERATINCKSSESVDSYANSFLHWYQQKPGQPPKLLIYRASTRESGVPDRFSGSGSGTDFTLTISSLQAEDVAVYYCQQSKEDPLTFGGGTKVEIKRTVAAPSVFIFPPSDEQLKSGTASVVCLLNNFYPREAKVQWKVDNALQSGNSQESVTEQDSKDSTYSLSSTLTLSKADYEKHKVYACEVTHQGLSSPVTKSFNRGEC
notes: also called variant v17427; unconjugated HetFc variant
B2: v17427-Drug-Linker 002 DAR 6 (antibody)
heavy 1: B1 heavy 1
heavy 2: not shown
light: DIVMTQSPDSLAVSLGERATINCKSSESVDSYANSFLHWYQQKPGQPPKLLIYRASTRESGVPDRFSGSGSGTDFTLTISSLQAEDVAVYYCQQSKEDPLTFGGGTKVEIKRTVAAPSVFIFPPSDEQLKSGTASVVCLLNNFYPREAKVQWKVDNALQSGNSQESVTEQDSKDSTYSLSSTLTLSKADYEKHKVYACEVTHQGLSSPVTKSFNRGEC
modifications: Drug-Linker 002 stochastically conjugated to lysine residues of the antibody, about DAR 6; Drug-Linker 002 (auristatin analogue Compound 1) stochastically conjugated to lysine residues of the antibody, about DAR 6
notes: Antibody-drug conjugate of v17427
B3: v17427-Drug-Linker 002 DAR 4 (antibody)
heavy 1: B1 heavy 1
heavy 2: not shown
light: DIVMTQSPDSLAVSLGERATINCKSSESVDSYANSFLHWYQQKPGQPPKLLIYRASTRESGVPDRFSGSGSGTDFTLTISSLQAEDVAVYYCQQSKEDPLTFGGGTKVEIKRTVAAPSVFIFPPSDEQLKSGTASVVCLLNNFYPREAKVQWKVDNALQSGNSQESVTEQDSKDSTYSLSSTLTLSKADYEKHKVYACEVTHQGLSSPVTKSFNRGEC
modifications: Drug-Linker 002 stochastically conjugated to lysine residues of the antibody, about DAR 4; Drug-Linker 002 (auristatin analogue Compound 1) stochastically conjugated to lysine residues of the antibody, about DAR 4
notes: as for B2

For one assay, the target named is T1, c-Met (hepatocyte growth factor receptor, HGFR), endogenous on tumour cell lines (UniProt P08581 25-1390, limits assumed).
T1 construct: whole, on cells
T1 sequence (P08581 25-1390 limits assumed): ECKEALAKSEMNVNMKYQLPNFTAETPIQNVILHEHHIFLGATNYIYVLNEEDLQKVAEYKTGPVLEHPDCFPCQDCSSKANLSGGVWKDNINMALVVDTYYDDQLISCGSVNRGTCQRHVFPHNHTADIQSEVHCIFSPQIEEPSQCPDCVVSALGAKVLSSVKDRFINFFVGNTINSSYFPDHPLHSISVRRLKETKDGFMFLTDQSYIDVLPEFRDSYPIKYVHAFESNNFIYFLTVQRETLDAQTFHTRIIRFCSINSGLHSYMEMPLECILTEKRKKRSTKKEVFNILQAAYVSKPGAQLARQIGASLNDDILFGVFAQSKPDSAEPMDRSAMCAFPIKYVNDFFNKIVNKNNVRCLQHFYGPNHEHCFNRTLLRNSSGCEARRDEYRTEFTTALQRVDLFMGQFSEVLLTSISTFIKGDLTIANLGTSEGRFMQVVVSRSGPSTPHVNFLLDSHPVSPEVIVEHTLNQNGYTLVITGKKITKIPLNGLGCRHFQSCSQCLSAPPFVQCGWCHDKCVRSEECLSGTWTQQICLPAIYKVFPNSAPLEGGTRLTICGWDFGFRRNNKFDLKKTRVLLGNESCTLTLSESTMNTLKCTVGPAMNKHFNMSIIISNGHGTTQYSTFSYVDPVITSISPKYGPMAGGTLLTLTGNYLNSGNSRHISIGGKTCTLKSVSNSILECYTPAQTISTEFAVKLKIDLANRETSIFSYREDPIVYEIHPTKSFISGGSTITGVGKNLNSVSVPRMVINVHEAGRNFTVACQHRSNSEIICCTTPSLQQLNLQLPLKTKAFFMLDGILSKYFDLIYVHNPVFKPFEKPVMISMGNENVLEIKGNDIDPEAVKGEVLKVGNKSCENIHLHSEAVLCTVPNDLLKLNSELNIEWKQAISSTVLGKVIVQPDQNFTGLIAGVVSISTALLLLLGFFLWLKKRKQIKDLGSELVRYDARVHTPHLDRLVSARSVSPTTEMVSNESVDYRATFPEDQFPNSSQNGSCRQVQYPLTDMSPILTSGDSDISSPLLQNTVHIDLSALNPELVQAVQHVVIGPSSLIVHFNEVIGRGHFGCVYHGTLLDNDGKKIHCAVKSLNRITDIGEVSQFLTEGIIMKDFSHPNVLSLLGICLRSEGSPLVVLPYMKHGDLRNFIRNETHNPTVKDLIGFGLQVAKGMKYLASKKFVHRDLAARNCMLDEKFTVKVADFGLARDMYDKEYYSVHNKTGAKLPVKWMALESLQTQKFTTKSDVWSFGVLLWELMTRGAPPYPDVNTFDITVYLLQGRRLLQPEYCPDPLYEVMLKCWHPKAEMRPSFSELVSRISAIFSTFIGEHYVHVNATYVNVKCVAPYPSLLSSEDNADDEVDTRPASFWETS
Nature of the assay: flow cytometry on SNU-5 cells (endogenous cMet), as in Example 10. As for the experimental part:
(§1) Briefly, cells were seeded at 50,000 cells/well in V-bottom 96-well plates and treated with antibody for 24 hours at 4° C. to prevent internalization. Following incubation, cells were washed and stained with anti-human IgG Fc AF647 conjugate (Jackson ImmunoResearch Laboratories, Inc., West Grove, PA; Cat. No. 109-605-098) at 4° C. for 30 min. Following incubation and washing, fluorescence was detected by flow cytometry on a BD LSRFortessa™ Cell Analyzer (BD Biosciences, Franklin Lake, NJ) with 1,000 minimum events collected per well. AF647/APC-A GeoMean (fluorescence signal geometric mean, proportional to anti-Human AF647 binding) in live cell population was plotted using GraphPad Prism Version 8 (GraphPad Software, San Diego, CA).
(§2) Cellular binding was determined as described in Example 10.
On the technique in general: In flow cytometry, cells or beads pass a laser one at a time.
As for B1, the Bmax is 34800 AF647 GeoMean fluorescence.

Turning to B2, the Bmax is 33500 AF647 GeoMean fluorescence.

Regarding B3, the Bmax was 34100 AF647 GeoMean fluorescence.

In another assay the target is T1, c-Met (hepatocyte growth factor …). Briefly: flow cytometry on H292 cells (endogenous cMet), as in Example 10. As for the experimental part: as §1, §2
Turning to B1, the Bmax is 2120 AF647 GeoMean fluorescence.

With B2, the Bmax is 2150 AF647 GeoMean fluorescence.

With B3, the Bmax is 2120 AF647 GeoMean fluorescence.

The next assay shares this target. Briefly: flow cytometry on H292 cells (endogenous cMet), 24 h at 4 C, anti-human IgG Fc AF647. As for the experimental part: as §1
Consider B1, for which the Bmax was 2120 AF647 GeoMean fluorescence.

With B2, the Bmax is 2150 AF647 GeoMean fluorescence.

For B3, the Bmax was 2120 AF647 GeoMean fluorescence.

The next assay shares this target. Nature of the assay: apparent Kd, flow cytometry on SNU-5 cells (endogenous cMet). As for the experimental part: as §1, §2
With B1, the Kd was 328 pM.

Consider B2, for which the Kd came to 435 pM.

B3: the Kd was determined as 428 pM.

The target is the same in another assay. Nature of the assay: apparent Kd, flow cytometry on H292 cells (endogenous cMet). As for the experimental part: as §1
With B1, the Kd was 30 pM.

Consider B2, for which the Kd stood at 50 pM.

Regarding B3, the Kd was found to be 40 pM.

The target is the same in a further assay. Briefly: flow cytometry on SNU-5 cells (endogenous cMet), 24 h at 4 C, anti-human IgG Fc AF647. The method, then:
as §1
On to B1, for which the Bmax is 34800 AF647 GeoMean fluorescence.

Regarding B2, the Bmax is 33500 AF647 GeoMean fluorescence.

For B3, the Bmax was 34100 AF647 GeoMean fluorescence.

A further assay shares this target. Nature of the assay: apparent Kd, flow cytometry on SNU-5 cells (endogenous cMet). The source holds these as a separate data set. As for the experimental part: as §1
In the case of B1, the Kd turned out to be 330 pM.

As to B2, the Kd was 430 pM.

In the case of B3, the Kd turned out to be 430 pM.

The target is the same in the next assay. Briefly: apparent Kd, flow cytometry on H292 cells (endogenous cMet). The source holds these as a separate data set. The method, then: as §1, §2
On to B1, for which the Kd stood at 26 pM.

On to B2, for which the Kd worked out at 47 pM.

For B3, the Kd was found to be 40 pM.
